Data on 2 substances can be found in PMC4332690.

Assay [1] has as its target PIDD death domain (PIDD-DD), human, residues 778-883 (human) (UniProt Q9HB75). Nature of the assay: native MS; nanoESI-MS, positive ion mode; 15 μM purified complex in 50 mM ammonium acetate pH 7.8.
Assay [2] has the same target. The experiment in a line: SEC-MALS; as a1 but total protein loaded 1.5 mg/mL (lowest concentration; some subunit dissociation). (In general: SEC sorts molecules by how far they enter the pores of the column.)

Sequence of UniProt Q9HB75 (Q9HB75 778-883): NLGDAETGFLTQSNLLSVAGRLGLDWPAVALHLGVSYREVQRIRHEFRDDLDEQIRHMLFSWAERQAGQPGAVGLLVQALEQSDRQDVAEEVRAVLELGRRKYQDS

With “RAIDD death domain (RAIDD-DD), human, residues 99-199, wild type (from UniProt P78560 99-199) (domain or fragment)”, in assay [1], the population of the 5:5 complex amounted to 28%, the population of the 6:5 complex came out at 43%, the population of the 7:5 complex came out at 29% and the stoichiometry N (RAIDD-DD per PIDD-DD (5:5)) is 1. In assay [1], this substance came in with a stoichiometry N (RAIDD-DD per PIDD-DD (6:5)) of 1.2 and a stoichiometry N (RAIDD-DD per PIDD-DD (7:5)) of 1.4.

Regarding “RAIDD-DD (E188K) (from UniProt P78560 99-199) (domain or fragment)”, the stoichiometry N (RAIDD-DD per PIDD-DD (R4:P4)) in assay [2] amounted to 1. For the same substance, in assay [1], the population of the 5:4 complex was 13%, the population of the 5:5 complex came to 87%, the stoichiometry N (RAIDD-DD per PIDD-DD (5:4)) turned out to be 1.25 and the stoichiometry N (RAIDD-DD per PIDD-DD (5:5)) stood at 1.
